Target: GST-DIAPH3-NT
Assay: GST pull-down with immunoblot quantification
Settings: n = 3, parent: est. 1.0, read off a plot

ratio to parent | ratio to parent (p = 0.0072 vs wt) | Substance
0.94 |  | MBP-anillin (1–151) wild type (from UniProt Q9NQW6) K38A; R39A
0.38 |  | MBP-anillin (1–151) wild type (from UniProt Q9NQW6) P43A; L44A
0.82 |  | MBP-anillin (1–151) wild type (from UniProt Q9NQW6) Q42A
0.59 |  | MBP-anillin (1–151) wild type (from UniProt Q9NQW6) R41A
 | 0.03 | MBP-anillin (1–151) wild type (from UniProt Q9NQW6) R41A; Q42A; P43A; L44A

— paper PMC5691081
